{"source": "paper PMC11601447", "key": {"hClpX E285A (human)": {"molecular_target": "hClpX E285A (human) (UniProt O76031)", "test": "negative stain EM"}, "hClpP^dCTE-S153A (human)": {"molecular_target": "hClpP^dCTE-S153A (human) (UniProt Q16740)", "test": "cryo-EM structure"}, "[1]": {"molecular_target": "bortezomib-bound hClpP (human) (UniProt Q16740)", "test": "cryo-EM structure"}}, "data": [{"substance": "hClpX E285A (from UniProt O76031 57-633) (enzyme)", "values": [{"measurement": "stoichiometry N", "setting": "hClpX E285A (human)", "result": 6}]}, {"substance": "hClpP^dCTE-S153A (from UniProt Q16740 58-277) (enzyme)", "values": [{"measurement": "stoichiometry N", "setting": "hClpP^dCTE-S153A (human)", "result": 14}]}, {"substance": "bortezomib-bound hClpP (from UniProt Q16740 58-277) (enzyme)", "values": [{"measurement": "stoichiometry N", "setting": "[1]", "result": 14}]}]}
